Test results as given in patent US20250092136A1 (Hoffmann-La Roche, published 2025).

What was measured:
[1] = target: T1, Biotinylated cynomolgus CD3ε stalk-Fc (knob)-Avi / CD3δ stalk-Fc (hole) (cynomolgus, biotinylated); test: SPR (Biacore T200), biotinylated CD3ε/δ-Fc on SA chip, TCB as analyte, 25 °C, 1:1 fit
T1 construct: Heterodimer of CD3 epsilon and CD3 delta ectodomains fused to Fc knob/hole; also called cynomolgus CD3ε/δ; cyno CD3
Protocol: (§1) CD3 binding was investigated using surface plasmon resonance (SPR) on a Biacore T200 instrument (Cytiva). All experiments were performed at 25° C. using HEPES buffered saline (20 mM HEPES, 140 mM NaCl, 0.05% PS-20) pH 7.4. The experimental setup is schematically depicted in FIG. 3.
(§2) Biotinylated human and cynomolgus CD3ε stalk-Fc (knob)-Avi/[…] stalk-Fc (hole) (CD3E/8, see SEQ ID NOs 49 and 50 (human) and SEQ ID NOs 51 and 52 (cynomolgus)) were coupled to a Series S Sensor Chip SA (Cytiva, #29104992) according to the manufacturer's instructions. A concentration series ranging from 0.37 to 300 nM (1:3) of the TCB antibody molecules were injected with 90 s association time, followed by a buffer wash of 300 s for monitoring the dissociation phase. Bulk refractive index differences were corrected by subtracting the response obtained from a mock surface. Blank injections were subtracted (double referencing). Kinetic constants were derived using the Biacore T200 Evaluation Software (Cytiva), to fit rate equations for 1:1 Langmuir binding by numerical integration. The half-life (t_{1/2}) of the interaction was calculated using the formula t_{1/2}=ln2/koff.

[2] = target: T2, Biotinylated human CD3ε stalk-Fc (knob)-Avi / CD3δ stalk-Fc (hole) (human, biotinylated); test: as above
T2 construct: also called human CD3ε/δ
T2 sequence (chain, as listed by the source mutant limits assumed, chain 1 of 2): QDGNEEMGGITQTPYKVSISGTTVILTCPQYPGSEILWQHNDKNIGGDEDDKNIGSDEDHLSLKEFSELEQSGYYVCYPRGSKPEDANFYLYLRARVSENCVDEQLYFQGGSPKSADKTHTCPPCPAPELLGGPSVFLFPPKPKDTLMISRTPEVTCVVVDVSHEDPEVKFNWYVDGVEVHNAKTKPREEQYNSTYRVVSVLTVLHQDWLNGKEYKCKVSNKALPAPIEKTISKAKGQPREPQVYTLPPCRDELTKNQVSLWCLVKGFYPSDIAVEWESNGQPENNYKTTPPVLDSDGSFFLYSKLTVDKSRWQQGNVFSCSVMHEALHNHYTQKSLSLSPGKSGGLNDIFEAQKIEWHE
T2 sequence (chain, as listed by the source mutant limits assumed, chain 2 of 2): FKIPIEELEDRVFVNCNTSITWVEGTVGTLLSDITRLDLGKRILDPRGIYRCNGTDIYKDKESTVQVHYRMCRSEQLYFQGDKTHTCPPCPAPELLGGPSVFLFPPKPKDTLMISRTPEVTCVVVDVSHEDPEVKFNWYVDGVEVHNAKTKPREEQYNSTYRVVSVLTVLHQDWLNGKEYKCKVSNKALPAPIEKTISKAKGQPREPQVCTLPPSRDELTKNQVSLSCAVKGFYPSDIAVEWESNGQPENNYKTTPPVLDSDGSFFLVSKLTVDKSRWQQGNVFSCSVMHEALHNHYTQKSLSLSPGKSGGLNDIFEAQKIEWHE
Protocol: as §1, §2

[3] = target: T3, Human CD3 on Jurkat NFAT reporter cells (human, UniProt P07766 23-207); test: flow cytometry on CD3-expressing Jurkat NFAT reporter cells, PE-conjugated anti-human IgG Fc secondary antibody, median fluorescence intensity
T3 construct: CD3 complex on the cell surface; also called CD3 on Jurkat cells; CD3 antigen (expressed on Jurkat-NFAT reporter cells)
T3 sequence (P07766 23-207 limits assumed): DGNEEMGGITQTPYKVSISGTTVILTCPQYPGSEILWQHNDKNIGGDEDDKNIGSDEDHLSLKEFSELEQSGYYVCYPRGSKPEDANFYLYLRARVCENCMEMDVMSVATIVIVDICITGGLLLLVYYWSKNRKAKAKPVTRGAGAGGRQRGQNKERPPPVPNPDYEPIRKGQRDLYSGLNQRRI
Protocol: The antibody staining was performed in a 96-well round bottom plate. Therefore 200′000 cells were seeded per well.

[4] = target: T4, Streptavidin (UniProt P22629 37-163, limits assumed); test: polyreactivity ELISA, coated antigen
T4 sequence (P22629 37-163 limits assumed): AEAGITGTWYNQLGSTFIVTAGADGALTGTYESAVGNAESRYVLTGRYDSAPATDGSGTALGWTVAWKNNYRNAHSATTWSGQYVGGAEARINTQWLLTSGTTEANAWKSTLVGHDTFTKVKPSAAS
Protocol: (§3) Polyreactivity was tested using an ELISA-based read out. A set of different antigens depicted in Table 9 was coated on a Nunc MaxiSorp microtiter plate (Fisher Scientific) overnight at 4° C. with a concentration of 1 μg/ml in Dulbecco's phosphate buffered saline (DPBS, PAN Biotech #P04-36500) each. After washing the plate two times using PBS (Roche Diagnostics #11666789001) containing 0.1% Tween-20, plates were blocked with DPBS, 2% bovine serum albumin (BSA, Roche Diagnostics #10735108001) for 1 hour at room temperature. After washing the plate three times, the HER2 TCBs were added with a concentration of 1 μg/ml diluted in DPBS and incubated for 1 hour at room temperature. Subsequently, plates were washed three times and an anti-human IgG F(ab′)2-HRP (Jackson ImmunoResearch #109-036-006) diluted 1:5000 in PBS, 0.5% BSA, 0.05% Tween-20 was added. After incubation for 1 hour at room temperature and washing for four times, TMB substrate (Sigma-Aldrich #T0440) was added and absorption was measured at 370/492 nm.

[5] = target: T5, Histone H4 aa2-24 (UniProt P62805 2-24); test: polyreactivity ELISA, coated antigen
T5 construct: range 2-24
Protocol: as §3

[6] = target: T6, Bovine Serum Albumin (bovine, UniProt P02769 25-607); test: polyreactivity ELISA, coated antigen
T6 construct: also called BSA
T6 sequence (P02769 25-607 limits assumed): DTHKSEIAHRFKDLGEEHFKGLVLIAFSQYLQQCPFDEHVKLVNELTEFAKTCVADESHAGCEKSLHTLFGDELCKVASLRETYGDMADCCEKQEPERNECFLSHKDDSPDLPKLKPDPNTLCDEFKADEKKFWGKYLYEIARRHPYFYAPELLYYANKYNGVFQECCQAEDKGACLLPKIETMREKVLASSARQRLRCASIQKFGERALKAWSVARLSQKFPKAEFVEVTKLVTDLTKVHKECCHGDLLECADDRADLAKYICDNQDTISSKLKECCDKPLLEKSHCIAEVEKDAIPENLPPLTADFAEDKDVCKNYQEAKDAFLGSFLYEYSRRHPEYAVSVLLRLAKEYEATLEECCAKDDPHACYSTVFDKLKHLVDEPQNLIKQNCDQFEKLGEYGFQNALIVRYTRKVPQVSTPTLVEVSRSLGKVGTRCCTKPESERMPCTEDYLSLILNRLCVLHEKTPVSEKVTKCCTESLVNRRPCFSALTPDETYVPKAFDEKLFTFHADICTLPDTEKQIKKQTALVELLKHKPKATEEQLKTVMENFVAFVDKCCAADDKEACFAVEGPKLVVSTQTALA
Protocol: as §3

[7] = target: Hemocyanin; test: polyreactivity ELISA, coated antigen 1 µg/ml, TCB 1 µg/ml
Protocol: as §3

[8] = target: T4, Streptavidin; test: as above
Protocol: as §3

[9] = target: Insulin; test: as above
Protocol: as §3

[10] = target: HSP90; test: as above
Protocol: as §3

[11] = target: T5, Histone H4 aa2-24; test: as above
Protocol: as §3

[12] = target: Gelatine (2%); test: as above
Protocol: as §3

[13] = target: T6, Bovine Serum Albumin; test: as above
Protocol: as §3

[14] = target: Apolipoprotein A-1; test: as above
Sequence of Apolipoprotein A-1 (P02647 25-267): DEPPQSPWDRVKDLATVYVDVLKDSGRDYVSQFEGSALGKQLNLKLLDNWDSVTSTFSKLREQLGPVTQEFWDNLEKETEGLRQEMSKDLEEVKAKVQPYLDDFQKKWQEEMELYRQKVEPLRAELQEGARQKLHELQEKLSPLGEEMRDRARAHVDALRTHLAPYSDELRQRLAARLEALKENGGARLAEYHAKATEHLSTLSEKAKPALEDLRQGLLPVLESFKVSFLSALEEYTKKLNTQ
Protocol: as §3

[15] = target: human CD3ε (coated antigen of the polyreactivity ELISA) (human, UniProt P07766 23-126, limits assumed); test: as above
Sequence of human CD3ε (coated antigen of the polyreactivity ELISA) (P07766 23-126 limits assumed): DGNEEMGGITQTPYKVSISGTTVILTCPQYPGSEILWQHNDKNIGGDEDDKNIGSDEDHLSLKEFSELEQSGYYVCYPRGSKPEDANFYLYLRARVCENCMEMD
Protocol: as §3

T1 sequence (chain, as listed by the source mutant limits assumed, chain 1 of 2): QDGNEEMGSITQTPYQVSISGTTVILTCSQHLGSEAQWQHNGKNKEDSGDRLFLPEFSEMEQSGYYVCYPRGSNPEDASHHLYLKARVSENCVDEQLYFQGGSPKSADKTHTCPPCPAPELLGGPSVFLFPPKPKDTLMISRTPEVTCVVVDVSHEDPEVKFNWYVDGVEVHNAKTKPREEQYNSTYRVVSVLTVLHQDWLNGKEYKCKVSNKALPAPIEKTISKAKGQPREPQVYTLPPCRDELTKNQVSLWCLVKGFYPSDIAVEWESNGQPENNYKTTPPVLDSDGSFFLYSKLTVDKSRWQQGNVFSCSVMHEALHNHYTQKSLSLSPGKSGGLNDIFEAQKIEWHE
T1 sequence (chain, as listed by the source mutant limits assumed, chain 2 of 2): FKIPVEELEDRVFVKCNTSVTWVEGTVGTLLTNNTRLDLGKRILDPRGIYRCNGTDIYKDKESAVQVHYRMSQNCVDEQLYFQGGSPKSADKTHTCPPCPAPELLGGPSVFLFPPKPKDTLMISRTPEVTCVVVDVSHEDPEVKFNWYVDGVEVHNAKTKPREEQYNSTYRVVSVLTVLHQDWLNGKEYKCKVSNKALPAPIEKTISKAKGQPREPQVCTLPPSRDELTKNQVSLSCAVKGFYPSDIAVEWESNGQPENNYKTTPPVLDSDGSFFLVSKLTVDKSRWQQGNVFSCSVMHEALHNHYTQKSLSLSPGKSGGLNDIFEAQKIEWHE

Binder | Kd [1] [nM] | t1/2 [1] [s] | Kd [2] [nM] | t1/2 [2] [s] | EC50 (read off the curve) [3] [nM] | binding result [4] | binding result [5] | binding result [6] | Absorbance (OD) [7] [OD] | Absorbance (OD) [8] [OD] | Absorbance (OD) [9] [OD] | Absorbance (OD) [10] [OD] | Absorbance (OD) [11] [OD] | Absorbance (OD) [12] [OD] | Absorbance (OD) [13] [OD] | Absorbance (OD) [14] [OD] | Absorbance (OD) [15] [OD]
HER2-TCB containing the parental CD3 binder P1AH4929 / CD3orig (bispecific antibody, human IgG1, kappa, L234A L235A, 2+1 IgG CrossFab, inverted: VH/VL exchange in the CD3 Fab, charge modifications in the two HER2 Fabs, knob-into-hole and P329G LALA in the Fc; also called PIAH4929) heavy 1: not shown heavy 2: not shown light 1: EVQLLESGGGLVQPGGSLRLSCAASGFTFSSYAMNWVRQAPGKGLEWVSRIRSKYNNYATYYADSVKGRFTISRDDSKNTLYLQMNSLRAEDTAVYYCVRASNFPASYVSYFAYWGQGTLVTVSSASVAAPSVFIFPPSDEQLKSGTASVVCLLNNFYPREAKVQWKVDNALQSGNSQESVTEQDSKDSTYSLSSTLTLSKADYEKHKVYACEVTHQGLSSPVTKSFNRGEC light 2: not shown | 0.2 | 519 | 0.2 | 529 | ~6 | no binding (tested: 1 µg/ml) | no binding (tested: 1 µg/ml) | no binding (tested: 1 µg/ml) | 0.02 | 0 | 0.01 | 0.02 | 0.05 | -0.01 | 0 | 0 | 2.87
HER2-TCB containing the optimized CD3 binder P1AI7913 (bispecific antibody, human IgG1, kappa, L234A L235A, 2+1 IgG CrossFab, inverted: VH/VL exchange in the CD3 Fab, charge modifications in the two HER2 Fabs, knob-into-hole and P329G LALA in the Fc; also called P1AI7913 (in TCB format)) heavy 1: not shown heavy 2: not shown light 1: EVQLLESGGGLVQPGGSLRLSCAASGFTFSSYAMNWVRQAPGKGLEWVGRVRTKYNNREPYYADSVKGRFTISRDDSKNTLYLQMNSLRAEDTAVYYCVRASNFPASYVSYFAYWGQGTLVTVSSASVAAPSVFIFPPSDEQLKSGTASVVCLLNNFYPREAKVQWKVDNALQSGNSQESVTEQDSKDSTYSLSSTLTLSKADYEKHKVYACEVTHQGLSSPVTKSFNRGEC light 2: not shown | 1.3 | 81 | 1.5 | 81 | – | no binding (tested: 1 µg/ml) | no binding (tested: 1 µg/ml) | no binding (tested: 1 µg/ml) | 0.07 | 0.01 | 0.04 | 0.03 | 0.06 | 0.01 | 0.01 | 0.01 | 2.83
HER2-TCB containing the optimized CD3 binder P1AI7915 (bispecific antibody, human IgG1, kappa, L234A L235A, 2+1 IgG CrossFab, inverted; also called P1AI7915 (in TCB format)) heavy 1: not shown heavy 2: not shown light 1: EVQLLESGGGLVQPGGSLRLSCAASGFTFSSYAMNWVRQAPGKGLEWVGRQRTQYNNREDYYADSVKGRFTISRDDSKNTLYLQMNSLRAEDTAVYYCVRASNFPASYVSYFAYWGQGTLVTVSSASVAAPSVFIFPPSDEQLKSGTASVVCLLNNFYPREAKVQWKVDNALQSGNSQESVTEQDSKDSTYSLSSTLTLSKADYEKHKVYACEVTHQGLSSPVTKSFNRGEC light 2: not shown | 9.7 | 31 | 11.5 | 30 | – | no binding (tested: 1 µg/ml) | no binding (tested: 1 µg/ml) | no binding (tested: 1 µg/ml) | 0.08 | 0 | 0.04 | 0.07 | 0.07 | 0.01 | 0.01 | 0.01 | 2.99
HER2-TCB containing the optimized CD3 binder P1AI7912 (bispecific antibody, human IgG1, kappa, L234A L235A, 2+1 IgG CrossFab, inverted: VH/VL exchange in the CD3 Fab, charge modifications in the two HER2 Fabs, knob-into-hole and P329G LALA in the Fc; also called P1AI7912 (in TCB format)) heavy 1: not shown heavy 2: not shown light 1: EVQLLESGGGLVQPGGSLRLSCAASGFTFSSYAMNWVRQAPGKGLEWVGRVRTTYNNREPYYADSVKGRFTISRDDSKNTLYLQMNSLRAEDTAVYYCVRASNFPASYVSYFAYWGQGTLVTVSSASVAAPSVFIFPPSDEQLKSGTASVVCLLNNFYPREAKVQWKVDNALQSGNSQESVTEQDSKDSTYSLSSTLTLSKADYEKHKVYACEVTHQGLSSPVTKSFNRGEC light 2: not shown | 11.3 | 11 | 12.6 | 11 | – | no binding (tested: 1 µg/ml) | no binding (tested: 1 µg/ml) | no binding (tested: 1 µg/ml) | 0.02 | 0 | 0.02 | 0.07 | 0 | -0.01 | 0 | 0.01 | 2.2
